Data taken from US20240317834A1, “COMPOSITIONS AND METHODS FOR NEUROLOGICAL DISEASES” (CODA BIOTHERAPEUTICS, INC., priority 2020, published 2024).

Key:
[1] = test system: Lenti-X 293T cells; test: YFP fluorescence quenching anion reporter plate reader assay of engineered receptors stimulated with acetylcholine or a non-native ligand; assay type: cell-based; settings: for percent quench of YFP fluorescence, 30 nM TC-6683: TC-6683 30 nM; for percent quench of YFP fluorescence, 300 nM TC-6683: TC-6683 300 nM; for percent quench of YFP fluorescence, 3 uM TC-6683: TC-6683 3 uM; for percent quench of YFP fluorescence, 30 uM TC-6683: TC-6683 30 uM; for percent quench of YFP fluorescence, 100 uM TC-6683: TC-6683 100 uM; for percent quench of YFP fluorescence, 100 uM ach: acetylcholine 100 uM; for percent quench of YFP fluorescence, 300 uM ach: acetylcholine 300 uM; for percent quench of YFP fluorescence, 500 uM ach: acetylcholine 500 uM; for percent quench of YFP fluorescence, 1 mM ach: acetylcholine 1 mM; for percent quench of YFP fluorescence, 3 mM ach: acetylcholine 3 mM; for percent quench of YFP fluorescence, 10 mM ach: acetylcholine 10 mM
Method in brief: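 YFP quench was followed for about 1 min 43 s after ligand delivered in iodide-based ECS, pH 7.2. Values are end-of-read fluorescence (last 10 s) divided by the pre-ligand baseline (15 s). Cells were LX293T, transfected with receptor DNA a day before the assay.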

[2] = Sensitivity of parental chimera SEQ ID NO: 33 to ligands relative to wild type α7-nAChR
[3] = test system: rat DRG neurons; test: Rheobase shift and evoked action potentials in rat DRG neurons (current clamp); assay type: cell-based
Method in brief: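 Rat DRG neurons expressing engineered receptors, whole-cell current clamp at RT. ECS at pH 7.3; K-gluconate internal at pH 7.2. 500 ms steps from −200 to 700 pA with and without ligand. Rheobase taken as the smallest depolarising step that fires an action potential; input resistance from negative steps.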

B1: CODA71: parental chimeric LGIC: human α7-nAChR ligand binding domain with GlyRα1 Cys-loop fused to human GlyRα1 ion pore domain (protein)
chain: MRCSPGGVWLALAASLLHVSLQGEFQRKLYKELVKNYNPLERPVANDSQPLTVYFSLSLLQIMDVDEKNQVLTTNIWLQMSWTDHYLQWNVSEYPGVKTVRFPDGQIWKPDILLYNSADERFDATFHTNVLVNSSGHCQYLPPGIFKSSCPMDLKNFPMDVQTCKLKFGSWSYGGWSLDLQMQEADISGYIPNGEWDLVGIPGKRSERFYECCKEPYPDVTFTVTMRRRMGYYLIQMYIPSLLIVILSWISFWINMDAAPARVGLGITTVLTMTTQSSGSRASLPKVSYVKAIDIWMAVCLLFVFSALLEYAAVNFVSRQHKELLRFRRKRRHHKSPMLNLFQEDEAGEGRFNFSAYGMGPACLQAKDGISVKGANNSNTTNPPPAPSKSPEEMRKLFIQRAKKIDKISRIGFPMAFLIFNMFYWIIYKIVRREDVHNQ
modifications: synthetic sequence of chimeric LGIC
- YFP fluorescence quenching using CNL001 ([1]; 1 nM CNL001, first column): 3.727%
- YFP fluorescence quenching using CNL001 ([1]; 1 nM CNL001, second column): 20.231%
- YFP fluorescence quenching using TC-5619/Bradanicline ([1]; 1 nM brd): 9.41%
- YFP fluorescence quenching using TC-5619/Bradanicline ([1]; 3 nM brd): 44.38%
- YFP fluorescence quenching using Varenicline ([1]; 3 nM var, first column): −2.36
- YFP fluorescence quenching using Varenicline ([1]; 3 nM var, second column): −3.522
- YFP fluorescence quenching using CNL001 ([1]; 10 nM CNL001, first column): 81.096%
- YFP fluorescence quenching using CNL001 ([1]; 10 nM CNL001, second column): 82.368%
- YFP fluorescence quenching using TC-5619/Bradanicline ([1]; 10 nM brd): 76.61%
- YFP fluorescence quenching using TC-5619/Bradanicline ([1]; 30 nM brd): 70.23%
- YFP fluorescence quenching using Facinicline ([1]; 30 nM fac): 53.42
- YFP fluorescence quenching using Varenicline ([1]; 30 nM var, first column): −4.255
- YFP fluorescence quenching using Varenicline ([1]; 30 nM var, second column): −3.636
- YFP fluorescence quenching using CNL001 ([1]; 50 nM CNL001, first column): 83.62%
- YFP fluorescence quenching using CNL001 ([1]; 50 nM CNL001, second column): 84.482%
- YFP fluorescence quenching using ABT-126 ([1]; 50 nM abt): −1.98%
- YFP fluorescence quenching using CNL001 ([1]; 100 nM CNL001, first column): 84.297%
- YFP fluorescence quenching using CNL001 ([1]; 100 nM CNL001, second column): 85.368%
- YFP fluorescence quenching using CNL002 ([1]; 100 nM CNL002): 49.61%
- YFP fluorescence quenching using ABT-126 ([1]; 100 nM abt): 24.27%
- YFP fluorescence quenching using AZD-0328 ([1]; 100 nM azd0328): 73.59%
- YFP fluorescence quenching using TC-5619/Bradanicline ([1]; 100 nM brd): 78.62%
- YFP fluorescence quenching using Facinicline ([1]; 100 nM fac): 83.6
- YFP fluorescence quenching using ABT-126 ([1]; 300 nM abt): 56.8%
- YFP fluorescence quenching using AZD-0328 ([1]; 300 nM azd0328): 78.09%
- YFP fluorescence quenching using TC-5619/Bradanicline ([1]; 300 nM brd): 75.51%
- YFP fluorescence quenching using Facinicline ([1]; 300 nM fac): 77.44
- YFP fluorescence quenching using Varenicline ([1]; 300 nM var, first column): 46.195
- YFP fluorescence quenching using Varenicline ([1]; 300 nM var, second column): 45.522
- YFP fluorescence quenching using ABT-126 ([1]; 500 nM abt): 76.28%
- YFP fluorescence quenching using Varenicline ([1]; 500 nM var, first column): 69.253
- YFP fluorescence quenching using Varenicline ([1]; 500 nM var, second column): 71.705
- YFP fluorescence quenching using CNL001 ([1]; 1 uM CNL001, first column): 85.647%
- YFP fluorescence quenching using CNL001 ([1]; 1 uM CNL001, second column): 86.358%
- YFP fluorescence quenching using CNL002 ([1]; 1 uM CNL002): 74.15%
- YFP fluorescence quenching using ABT-126 ([1]; 1 uM abt): 73.16%
- YFP fluorescence quenching using TC-6987 ([1]; 1 uM tc6987): 31.56
- YFP fluorescence quenching using Varenicline ([1]; 1 uM var, first column): 79.254
- YFP fluorescence quenching using Varenicline ([1]; 1 uM var, second column): 79.244
- YFP fluorescence quenching using ABT-126 ([1]; 3 uM abt): 70.98%
- YFP fluorescence quenching using TC-6987 ([1]; 3 uM tc6987): 31.82
- YFP fluorescence quenching using TC-6987 ([1]; 5 uM tc6987): 30.75
- YFP fluorescence quenching using ABT-126 ([1]; 10 uM abt): 72.62%
- YFP fluorescence quenching using TC-6987 ([1]; 10 uM tc6987): 56.68
- YFP fluorescence quenching using CNL002 ([1]; 30 uM CNL002): 75.21%
- YFP fluorescence quenching using ABT-126 ([1]; 30 uM abt): 77.49%
- YFP fluorescence quenching using AZD-0328 ([1]; 30 uM azd0328): 79.05%
- YFP fluorescence quenching using Facinicline ([1]; 30 uM fac): 79.62
- YFP fluorescence quenching using TC-6987 ([1]; 30 uM tc6987): 51.46
- YFP fluorescence quenching using ABT-126 ([1]; 50 uM abt): 77.96%
- YFP fluorescence quenching using TC-6987 ([1]; 50 uM tc6987): 61.26
- YFP fluorescence quenching using ABT-126 ([1]; 100 uM abt): 77.81%
- YFP fluorescence quenching using TC-6987 ([1]; 100 uM tc6987): 43.21
- YFP fluorescence quenching using TC-6987 ([1]; 300 uM tc6987): 7.79
- YFP fluorescence quenching using TC-6987 ([1]; 500 uM tc6987): 51.58
- percent quench of YFP fluorescence, 30 nM TC-6683 [1]: −14.43%
- percent quench of YFP fluorescence, 300 nM TC-6683 [1]: −13.08%
- percent quench of YFP fluorescence, 3 uM TC-6683 [1]: −13.71%
- percent quench of YFP fluorescence, 30 uM TC-6683 [1]: −14.02%
- percent quench of YFP fluorescence, 100 uM TC-6683 [1]: −8.77%
- percent quench of YFP fluorescence, 10 uM ach ([1]; acetylcholine 10 uM): 15.61%
- percent quench of YFP fluorescence, 30 uM ach ([1]; acetylcholine 30 uM): 63.31%
- percent quench of YFP fluorescence, 50 uM ach ([1]; acetylcholine 50 uM): 73.16%
- percent quench of YFP fluorescence, 100 uM ach [1]: 74.94%
- percent quench of YFP fluorescence, 300 uM ach [1]: 65.94%
- percent quench of YFP fluorescence, 500 uM ach [1]: 62.78%
- percent quench of YFP fluorescence, 1 mM ach [1]: 74.24%
- percent quench of YFP fluorescence, 3 mM ach [1]: 76.27%
- percent quench of YFP fluorescence, 5 mM ach ([1]; acetylcholine 5 mM): 77.15%
- percent quench of YFP fluorescence, 10 mM ach [1]: 77.96%
- sensitivity to ABT-126 compared with wild type α7-nAChR ([2]; ligand ABT-126): approximately as sensitive
- fold more sensitive to AZD-0328 than wild type ([2]; ligand AZD-0328): approximately 3 fold
- fold more sensitive to Facinicline/RG3487 than wild type ([2]; ligand Facinicline/RG3487): ~10 fold
- sensitivity to TC-6987 compared with wild type α7-nAChR ([2]; ligand TC-6987): approximately as sensitive
- type of agonist activity of TC-6987 on the receptor ([2]; ligand TC-6987, similar to wild type): partial agonist activity
- sensitivity to acetylcholine compared with wild type α7-nAChR ([2]; ligand acetylcholine): approximately as sensitive
- fold less sensitive to nicotine than wild type ([2]; ligand nicotine): ~2 fold

B2: CODA1056: engineered chimeric LGIC receptor, R101F, Y115E, Y210W in SEQ ID NO: 33 (protein)
chain: MRCSPGGVWLALAASLLHVSLQGEFQRKLYKELVKNYNPLERPVANDSQPLTVYFSLSLLQIMDVDEKNQVLTTNIWLQMSWTDHYLQWNVSEYPGVKTVFFPDGQIWKPDILLENSADERFDATFHTNVLVNSSGHCQYLPPGIFKSSCPMDLKNFPMDVQTCKLKFGSWSYGGWSLDLQMQEADISGYIPNGEWDLVGIPGKRSERFWECCKEPYPDVTFTVTMRRRMGYYLIQMYIPSLLIVILSWISFWINMDAAPARVGLGITTVLTMTTQSSGSRASLPKVSYVKAIDIWMAVCLLFVFSALLEYAAVNFVSRQHKELLRFRRKRRHHKSPMLNLFQEDEAGEGRFNFSAYGMGPACLQAKDGISVKGANNSNTTNPPPAPSKSPEEMRKLFIQRAKKIDKISRIGFPMAFLIFNMFYWIIYKIVRREDVHNQ
modifications: synthetic sequence of chimeric LGIC
- YFP fluorescence quenching using CNL001 ([1]; 1 nM CNL001, first column): −8.104%
- YFP fluorescence quenching using CNL001 ([1]; 1 nM CNL001, second column): −12.153%
- YFP fluorescence quenching using TC-5619/Bradanicline ([1]; 1 nM brd): −7.894%
- YFP fluorescence quenching using TC-5619/Bradanicline ([1]; 3 nM brd): −11.812%
- YFP fluorescence quenching using CNL001 ([1]; 10 nM CNL001, first column): −10.462%
- YFP fluorescence quenching using CNL001 ([1]; 10 nM CNL001, second column): −4.735%
- YFP fluorescence quenching using TC-5619/Bradanicline ([1]; 10 nM brd): 36.211%
- YFP fluorescence quenching using TC-5619/Bradanicline ([1]; 30 nM brd): 40.624%
- YFP fluorescence quenching using CNL001 ([1]; 50 nM CNL001, first column): −8.617%
- YFP fluorescence quenching using CNL001 ([1]; 50 nM CNL001, second column): −1.606%
- YFP fluorescence quenching using ABT-126 ([1]; 50 nM abt): −20.96%
- YFP fluorescence quenching using CNL001 ([1]; 100 nM CNL001, first column): −1.243%
- YFP fluorescence quenching using CNL001 ([1]; 100 nM CNL001, second column): 1.838%
- YFP fluorescence quenching using ABT-126 ([1]; 100 nM abt): −21.95%
- YFP fluorescence quenching using TC-5619/Bradanicline ([1]; 100 nM brd): 65.869%
- YFP fluorescence quenching using ABT-126 ([1]; 300 nM abt): −10.96%
- YFP fluorescence quenching using TC-5619/Bradanicline ([1]; 300 nM brd): 59.661%
- YFP fluorescence quenching using CNL001 ([1]; 1 uM CNL001, first column): −0.567%
- YFP fluorescence quenching using CNL001 ([1]; 1 uM CNL001, second column): 4.663%
- YFP fluorescence quenching using ABT-126 ([1]; 1 uM abt): 10.79%
- percent quench of YFP fluorescence, 30 nM TC-6683 [1]: −19.889%
- percent quench of YFP fluorescence, 300 nM TC-6683 [1]: −22.443%
- percent quench of YFP fluorescence, 3 uM TC-6683 [1]: −12.623%
- percent quench of YFP fluorescence, 30 uM TC-6683 [1]: −10.728%
- percent quench of YFP fluorescence, 100 uM TC-6683 [1]: −10.959%
- percent quench of YFP fluorescence, 100 uM ach [1]: −20.55%
- percent quench of YFP fluorescence, 300 uM ach [1]: −19.32%
- percent quench of YFP fluorescence, 500 uM ach [1]: −19.75%
- percent quench of YFP fluorescence, 1 mM ach [1]: −14.08%
- percent quench of YFP fluorescence, 3 mM ach [1]: 14.07%
- percent quench of YFP fluorescence, 10 mM ach [1]: 25.7%
- Rheobase Shift; Rat DRG Neurons, +TC-5619 @ EC90 ([3]; +TC-5619 @ EC90): 632 ± 43 pA
- Rheobase Shift; Rat DRG Neurons, Baseline ([3]; Baseline, no ligand): 114 ± 12 pA
